From US20190248903A1 (Genentech, published 2019)

How the values were obtained:
[1] = molecular target: T1, cynomolgus CLL-1 on cells (HEK293AD cells stably expressing recombinant cynoCLL-1) (cynomolgus monkey); assay: Scatchard analysis on 293AD/cynoCLL1 cells; 293AD/cynoCLL1 cells
T1 construct: also called 293AD/cynoCLL-1; 293AD/cynoCLL1
T1 chain: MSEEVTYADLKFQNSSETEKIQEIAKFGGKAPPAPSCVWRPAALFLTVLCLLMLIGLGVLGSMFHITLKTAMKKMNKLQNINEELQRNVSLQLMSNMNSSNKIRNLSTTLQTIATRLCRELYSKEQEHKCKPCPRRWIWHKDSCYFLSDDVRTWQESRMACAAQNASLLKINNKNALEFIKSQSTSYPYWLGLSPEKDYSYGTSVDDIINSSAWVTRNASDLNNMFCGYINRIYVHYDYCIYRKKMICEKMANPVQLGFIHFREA

[2] = molecular target: T1, cynomolgus CLL-1 on cells (HEK293AD …); assay: Scatchard analysis on 293AD/cynoCLL1 cells
Method: Competition assay mixtures of 50 μL volume containing a fixed concentration of [I¹²⁵] labeled antibody and decreasing concentrations of serially diluted, unlabeled antibody were placed into 96-well plates. HEK293AD cells stably expressing recombinant hu or cynoCLL-1 or HL-60 tumor cells expressing endogenous CLL-1 were cultured in growth media at 37° C. in 5% CO₂. Cells were detached from the flask using Sigma Cell Dissociation Solution and were washed with binding buffer, which consisted of Dulbecco's Modified Eagle Medium (DMEM) with 1% bovine serum albumin (BSA), […] and 0.1% sodium azide. The washed cells were added to the 96 well plates at a density of 100,000 cells in 0.2 mL of binding buffer. […] The final concentration of the unlabeled antibody in the competition assay ranged from 1000 nM through ten 2-fold dilution steps to a 0 nM buffer-only assay. Competition assays were carried out in triplicate. Competition assays were incubated for 2 hours at room temperature. […] The filters were counted on a Wallac Wizard 1470 gamma counter (PerkinElmer Life and Analytical Sciences Inc.; Wellesley, Mass.). The binding data was evaluated using NewLigand software (Genentech), which uses the fitting algorithm of Munson and Robard to determine the binding affinity of the antibody (Munson and Robard 1980).

Kd [1]: 670 pM | Kd [2]: 220 pM
B1: humanized 6E7.L4H1e (antibody, V domains shown)
VH: EVQLVQSGAEVKKPGASVKVSCKASGYSFTDYYMHWVRQAPGQGLEWIGRINPYNGAAFYSQNFKDRVTLTVDTSTSTAYLELSSLRSEDTAVYYCAIERGADLEGYAMDYWGQGTLVTVSS
VL: DIQMTQSPSSLSASVGDRVTITCRASQSVSTSSYNYMHWYQQKPGKPPKLLIKYASNLESGVPSRFSGSGSGTDFTLTISSLQPEDFATYYCQHSWEIPLTFGQGTKVEIK
notes: also called h6E7.L4H1e; 6E7.L4H1eN54
